Experimental data taken from paper PMC11946911.

Assays:
[1] = target: EcZorA (ZorA of the Escherichia coli NCTC 9026 type I Zorya system, EcZorI) (Escherichia coli NCTC 9026); assay: cryo-EM structure
[2] = target: EcZorB (ZorB of the Escherichia coli NCTC 9026 type I Zorya system, EcZorI) (Escherichia coli NCTC 9026); assay: cryo-EM structure

Row | Substance | stoichiometry N [1] | stoichiometry N [2]
1 | EcZorA (ZorA of the Escherichia coli NCTC 9026 type I Zorya system, EcZorI) (natural protein) | 5 | 
2 | EcZorB (ZorB of the Escherichia coli NCTC 9026 type I Zorya system, EcZorI) (natural protein) |  | 2
